Assay: soluble on expression in E. coli; label from the status in PepcDB or PDB records

Row | Sequence | soluble on expression in E. coli
1 | MGHHHHHHSHQGEEELVSQTDVKTFLEALPQESWQNKHAGSNGNRATNGAPSLVSRGMQGASANTLNSETSTKRAAVYRMNRNHRGLCVIVNNHSFTSLKDRQGTHKDAEILSHVFQWLGFTVHIHNNVTKVEMEMVLQKQKCNPAHADGDCFVFCILTHGRFGAVYSSDEALIPIREIMSHFTALQCPRLAEKPKLFFIQACQGEEIQPSVSIEADALNPEQAPTSLQDSIPAEADFLLGLATVPGYVSFRHVEEGSWYIQSLCNHLKKLVPRMLKFLEKTMEIRGRKRTVWGA | not soluble
2 | MKKVRDPLEVTVVGQNIIVADDNYKWLQILPEKKRYSITVMFDNKGNPLEYYFDINIKNITQKGNARTVDLCLDVLALPSGEYELVDEDDLMFALESEQIT | not soluble
3 | MSKVALFSHVSPDGDCIGSMLGIGLALEALGKEVAMFNPDPIPRNLSFLPGVDKITQSMPDPLPETLLFVDCADLQRVQLQREDLPADAVILNLDHHISNQNFGRINWVDSQAAASGELAYALVRRLNVELTQEIAANFYTALLTDTGSFKYANTTAKTHQIAGELMELEHHHHHH | not soluble
4 | MSLRKDLSEKVLIADGAMGTLLYSYGVDRSFEELNLSHPEDIVAIHKAYIGAGADIIQTNTYGANYIKLARYGLEDEVKRINQAAIRLAKEAARGTGTYIFGTIGGINGAVDARLPAAPLEEIKRSFREQLYCFLLDGVDAILLETYYDLDELKTVLKILRETTDLPVVANVSMHEPGILQNGKKLPDALEELIALGADVVGINCRLGPYHMARALETVPLYDNAYLAVYPNASLPEMQEGKVIYQSDTDYFEHYGEVFRQEGARIIGGCCGTTPDHIRALRKGLETTKPILEKEVRPILELVPEEVEDVDSGERLLDKVKERLTILVELDPPRTFDTTKFFEGAQALDEAGVDAITISDNSLATPRISNMALASILKHEYGIKPLIHLTTRDHNLVGMHSHVMGFHKLGLHDVLAITGDPTKVGDFPGASSVFDLRSVELVQLIKKFNDGISYTGKSLKEKARFHVGAAFNPNVLNLEKAVRLIERKVEYGADYIITQPIYDVNKAILLKEALQKANIDVPLFIGVMPLLSSRNAEFLHNEVPGIRLTDDVRERMREAEEHGHANEEGMAIARELVDAICEHFQGIYIITPFLRYDLSIELAKYAQNKQQVQIGSKEGHHHHHH | soluble
5 | MAHHHHHHMLTIRVGNLPVCLCSNLRNTFNPTYAFGVKRNDGTVALLDGKSGHLLLPFDAEGNIIVTPGADYQLVFLSNDSTSSTVHTTQGLGKGGTNKTSHDFELTKALAKDGSIHREKRRLDDGRATSRERFHKGNAHYSVSDSKPTKRRKRDHSVDKDAVVEAEFGSQSINKKERSVKASRKDSNREDSDDPDDIPIFCTLAGKPTPAPISSNHTPTVSPAPKEVYLVDNFDPTTRPAHSEEGALDSSATELISS | soluble
6 | MIDLHCHSTVSDGMLSPAEVVRLAHQNGCTLLALTDHDHTGGIAEARAEADKLGLRLINGVEISVTWRGRTIHVVGLDFDEQDENLQNLLAQVRKGRLKRLEAIAAKLEKKGIGGAYDGALALAANKEMVSRTHVAEFLIQAGHVKNKQQAFTKYLGDGKSCAVRHEWATLEDCVSAVNGAGGMAVIAHPMRYDLSATAKRNLFEEFKNLGGAGIEVHSGNCCKNDRLNYALLAERFGMLASAGSDFHRLNDFSGGILGACPELPENCKPVWEHFSRY | not soluble
7 | MWRELWRVVEKSDIIVQIVDARNPLLFRSKDLDDYVKEVDPAKQILLLVNKADLLKPEQQASWREYFEKENIKVIFWSAIDEVLDPIDEDAVETSNPSTSTHMFVTNKDELIAKFKELGHVSDEPSAKPVMVGMVGYPNVGKSSTINKLAGGKKVSVSATPGKTRHFQTIHIDSQLCLCDCPGLVMPSFSFGRSEMFLNGILPVDQMRDHFGPTSLLLSRVPVHVIEATYSIMLPEMQSPSAINLLNSLAFMRGFMASSGIPDCSRAARLMFKDVVSGKLIWAAAPPGVEQEEFDRISYPDKKTRDIGRVQMEKLAKLQLLEGDELKGSQFDSQHFVGSIGVAHVRDSKALPQTLGTVIPTAPTENNGKKHYKGKKDKLRRIYNE | not soluble
8 | MGSSHHHHHHSSGLVPRGSHMEEDGGIIRRIQTRGEGYAKPNEGAIVEVALEGYYKDKLFDQRELRFEIGEGENLDLPYGLERAIQRMEKGEHSIVYLKPSYAFGSVGKEKFQIPPNAELKYELHLKSFEKAKESWEMNSEEKLEQSTIVKERGTVYFKEGKYKQALLQYKKIVSWLEYESSFSNEEAQKAQALRLASHLNLAMCHLKLQAFSAAIESCNKALELDSNNEKGLSRRGEAHLAVNDFELARADFQKVLQLYPNNKAAKTQLAVCQQRIRRQLAREKKLYANMFERLAEEENKAKAEASSGDHPTDTEMKEEQKSNTAGSQSQVETEA | soluble
9 | DQESCKGRCTEGFNVDKKCQCDELCSYYQSCCTDYTAECKPQVTRGDVFTM | soluble
10 | MGSDKIHHHHHHMREQLDQVGSGGVTGATGLLGNNLVRELVARGYTVKGLVRSKAKGEQQFNNLPGVELVVGDMAEVDAFAASLQGCDTVFHTASFFRDNYKGGSHWKELEQINVSGTRRLLEQAYGAGIRRFIHTSSIAVLNGAPGTSIEENCLRADADADDYYRSKILADRVVLSFLESHPQMHACMVLPGWMWGPGDVGPTSSGQLVNDVVQGKLPGLIPGSFSIVDARDVALAHIAAARHGRRGERYLAAGRHMTMRELMPVLGRMAGVKTPARQIPLPFLYTLAAVQEIYARLTGRPILLSMATLRLLVREQDRTRFDHRKSEQELGLSFRALELTIADTVAWYRDHGWFEKGSRL | not soluble
11 | MIEIPSDLHKDLVPLVFLLGDWAGAGVHDFPGAEKCNFGQEVSFTHDGRDFLEYQSHTWVLDNDGNKVRPLESEHGFWRIDANRKVEVTMTRDDGVIEIWYGELADQKPQIDLVTDAVARTAASQPYTGGKRLYGYVKSDLMWVGEKQTPEVELRPYMSAHLKKVVTPEDVERWAKALPDDMPDDGIAFFKLEHHHHHH | not soluble
12 | MYMAQPGHIDHIKQINAGRVYKLIDQKGPISRIDLSKESELAPASITKITRELIDAHLIHETTVQEAISRGRPAVGLQTNNLGWQFLSMRLGRGYLTIALHELGGEVLIDTKIDIHEIDQDDVLARLLFEIEEFFQTYAAQLDRVTSIAITLPGLVNSEQGIVLQMPHYNVKNLALGPEIYKATGLPVFVANDTRAWALAEKLFGHSQDVDNSVLISIHHGLGAGIVLDGRVLQGRHGNIGELGHIQIDPQGKRCHCGNYGCLETVASSQAIRDQVTARIQAGEPSCLATVEEISIEDICAAAADGDPLAVDVIQQLGRYLGAAIAIVINLFNPEKILIGGVINQAKSILYPSIEQCIREQSLPVYHQDLKLVESRFYKQATMPGAALIKQALYDGLLLMKVVEG | soluble
13 | MSVFTPLARPELETFLAPYGLGRLLDYQGIAAGSENTNYFISLEQGEFVLTLVERGPVQEMPFFIELLDVLHDANLPVPYALRTTDGQALRELAGKPALLQPRLPGKHISEPNTQHCVQIGELLANLHLATREQVLERKTDRGLDWMLSEGRNFLSHLGETQRALLEKSLQEIEDLKPQIMALPRANLHADLFRDNVLFEGTHLTGLIDFYNACSGPMLYDLAIALNDWCSRENGQLDAVRARALLGAYAGLRPFTAAESKLWATMLRIACVRFWLSRLIAAETFAGQDVLIHDPVEFEQRLAERQTPHIALPFAL | soluble
14 | SMRSGSSMKEEPLGSGMNAVRTWMQGAGVLDANTAAQSGVGLARAHFEKQPPSNLRKSNFFHFVLALYDRQGQPVEIERTAFVGFVEKEKEANSEKTNNGIHYRLQLLYSNGIRTEQDFYVRLIDSMTKQAIVYEGQDKNPEMCRVLLTHEIMCSRCCDKKSCGNRNETPSDPVIIDRFFLKFFLKCNQNCLKNAGNPRDMRRFQVVVSTTVNVDGHVLAVSDNMFVHNNSKHGRRARRLDPS | soluble
15 | MSLEDYTRIVADRMEGQSQVQVRAEGNVVVERNRTTLNADWADYDQSGDTVTAGDRFALQQDGTLIRGETLTYNLEQQTGEAHNVRMETEHGGRRLQSVSRTAEMLGEGHYKLTETQFNTCSAGDAGWYVKAASVEADREKGIGVAKHAAFVFGGVPIFYTPWADFPLDGNRKSGLLVPSLSAGSDGVSLSVPYYFNLAPNLDATFAPGVIGERGAVFDGQVRYLRPDYAGQSDLTWLPHDKKSGRNNRYQAKWQHRHDISDTLQAGVDFNQVSDSGYYRDFYGNKEIAGNVNLNRRVWLDYGGRAAGGSLNAGLSVLKYQTLANQSGYKDKPYALMPRLSADWRKNTGRAQIGVSAQFTRFSHDSRQDGSRLVVYPDIKWDFSNSWGYVRPKLGLHATYYSLNRFGSQEARRVSRTLPIVNIDSGMTFERNTRMFGGGVLQTLEPRLFYNYIPAKSQNDLPNFDSSESSFGYGQLFRENLYYGNDRINTANSLSAAVQSRILDGATGEERFRAGIGQKFYFKNDAVMLDGSVGKKPRSRSDWVAFASSGIGSRFILDSSIHYNQNDKRAENYAVGASYRPAQGKVLNARYKYGRNEKIYLKSDGSYFYDKLSQLDLSAQWPLTRNLSAVVRYNYGFEAKKPIEVLAGAEYKSSCGCWGAGVYAQRYVTGENTYKNAVFFSLQLKDLSSVGRNPADRMDVAVPGYIPAHSLSAGREGHHHHHH | not soluble
16 | MYQDLIRNELNEAAETLANFLKDDANIHAIQRAAVLLADSFKAGGKVLSCGNGGSHCDAMHFAEELTGRYRENRPGYPAIAISDVSHISCVGNDFGFNDIFSRYVEAVGREGDVLLGISTSGNSANVIKAIAAAREKGMKVITLTGKDGGKMAGTADIEIRVPHFGYADRIQEIHIKVIHILIQLIEKEMVK | soluble
17 | MGSDKIHHHHHHAPFVFDQQSYRQDVQTLASDEFEGRGPLSQGETLTVEYLENAFKKMGLAPGFGDSYRQSVPMAKITADQNMQLKVGELVFNNGSDFTARTEQIQPSITLDNSEIVFVGYGINAPEYGWNDYAGIDVKGKTVILMVNDPGFATQDPEVFKGNAMTYYGRWTYKYEEAARQGAKAVFIIHETAPAAYGWNVVQNSNTNTKYTLVDKEKNRSHIGVMGWVQHEVAQKIFTAAGLDYDKLKLTAAKPGFKSRSLDLKANLEVKNDIELATSYNVAGLLPGKTRPDEWLVMHAHWDHLGKTVHEDQTRIYNGAVDNASGVAGVLQLARHFKDLSATQPPARSMLFSAFTAEETGLIGAQYFAENSPVPTKQLVAFLNIDGMNVGKGVDYILRYGEGVSELENYLDKAAKAQGRWVKADPRPQNGLMFRSDHFALAKQGVPGLMFMSLGDTDPDYIAHKYHQGADDYDPSWTLGGVEQDLALISDILEKLANNNDWPKWLEASDFKTRRAQDGR | not soluble
18 | MGSDKIHHHHHHMKTVMLMLTSLLMAGCSVLGKREAAEPPYELLKHDGAFEVRRYGPMVIAETILDEKSYSAASGKGFNRLAGYIFGKNRSKTSISMTAPVLQERSSEKISMTAPVLQQPQKGGWSMAFVLPEGFTLQSAPEPLDPEVKLRELPPSTIAVVTFSGLHSAANLEKYSRQLQAWLKKQGYRALSEPKLASYDPPWTIPFLRRNEVQIRIEPDHGESGKE | not soluble
19 | MATKARVMYDFAAEPGNNELTVNEGEIITITNPDVGGGWLEGRNIKGERGLVPTDYVEILPSDGKDQFSCGNSVADQAFLDSLSASTAQASSSAASNNHQVGSGNDPWSAWSASKSGNWESSEGWGAQPEGAGAQRNTNTPNNWDTAFGHPQAYQGPATGDDDDWDEDWDGPKSSSYFKDSESADAGGAQRGNSRASSSSMKIPLNKFPGFAKPGTEQYLLAKQLAKPKEKIPIIVGDYGPMWVYPTSTFDCVVADPRKGSKMYGLKSYIEYQLTPTNTNRSVNHRYKHFDWLYERLLVKFGSAIPIPSLPDKQVTGRFEEEFIKMRMERLQAWMTRMCRHPVISESEVFQQFLNFRDEKEWKTGKRKAERDELAGVMIFSTMEPEAPDLDLVEIEQKCEAVGKFTKAMDDGVKELLTVGQEHWKRCTGPLPKEYQKIGKALQSLATVFSSSGYQGETDLNDAITEAGKTYEEIASLVAEQPKKDLHFLMECNHEYKGFLGCFPDIIGTHKGAIEKVKESDKLVATSKITLQDKQNMVKRVSIMSYALQAEMNHFHSNRIYDYNSVIRLYLEQQVQFYETIAEKLRQALSRFPVM | soluble

Reference: the DeepSol protein solubility set
